Measured values published in patent US20210340516A1, “COMPOSITIONS CONTAINING ARGINASE 1 FOR THE TREATMENT OF NEUROVASCULAR AND RETINAL VASCULAR DISORDERS” (Augusta University Research Institute, Inc., priority 2020, published 2021).

Assays:
[1] = system: WT pups subjected to oxygen-induced retinopathy (OIR); assay: OIR mouse model: morphometric analysis of vaso-obliteration and neovascularization on lectin-labeled retinal flat mounts; assay type: in vivo
Text: OIR mouse model: Wild type (WT) or heterozygous A1 knock out (A1^+/−) mice and their wild type (WT) littermates were subjected to oxygen induced retinopathy (OIR). Because deletion of both copies of A1 is lethal due to hyperammonemia, mice lacking 1 copy of A1 were used which is sufficient to dampen its activity (Zhang, et al., Am J Pathol, 175:891-902 (2009); Elms, et al., Diabetologia, 56:654-662 (2013); Patel, et al., Front Immunol, 4:173 (2014)). OIR was induced in newborn mice according to the protocol of Smith, et al. with some adjustments (Connor, et al., Nature Protocols, 4:1565-1573 (2009)). On P7 (postnatal day 7), mice were placed along with their dams in a hyperoxia (70% oxygen) chamber for up to 5 days, after which they were transferred back to room air on P12. The 70% oxygen concentration was used for experiments involving A1^+/− mice based on preliminary experiments showing intolerance of the A1^+/− mice to 75% oxygen treatment. Mice were sacrificed at various times and retinas were collected for analyses (FIG. 1A-1C). In all experiments, mice were compared to their littermate controls. Then data were pooled together to minimize variability between litters due to differences in litter size and weight gain (Kim, et al., Eye and Brain, 8:67-79 (2016)). These experiments were performed in accordance with the ARVO Statement for the Use of Animals in Ophthalmic and Vision Research, and were approved by the institutional animal care and use committee.
Analysis of vaso-obliteration and neovascularization: Eyeballs were fixed in 4% paraformaldehyde (PFA) overnight. Retina flat-mounts were dissected and then blocked and permeabilized in phosphate-buffered saline (PBS) containing 10% goat serum and 1% Triton X-100 (Sigma-Aldrich) for 30 minutes. Retinas were then immunolabeled with Alex594-labeled Griffonia simplicifolia isolectin B4 (1:200; Invitrogen, Carlsbad, Calif.) overnight at 4° C. Retinas were flat-mounted in mounting medium (Vectashield; Vector Laboratories, Burlingame, Calif.) and images were captured using fluorescence microscopy (Axioplan 2, Carl Zeiss Vision Inc.). Areas of central capillary dropout (vaso-obliteration, VO) and vitreoretinal neovascular tufts (neovascularization, NV) were quantified in a masked fashion using ImageJ software (NIH, Bethesda, Md.) (Connor, et al., Nature Protocols, 4:1565-1573 (2009); Patel, et al., Am J Pathol, 184:3040-3051 (2014)). High-magnification images were acquired to perform vessel sprouting analysis. Vessel sprouts were counted as previously described Patel, et al., Am J Pathol, 184:3040-3051 (2014)).
(§1) PBS was used as vehicle control. Pups were anesthetized before treatment by intraperitoneal (i.p.) injection of ketamine/xylazine mixture. Intravitreal injections were performed using a 36-gauge NanoFil needle mounted to a 10-μL Hamilton syringe (World Precision Instruments). Two treatment strategies were employed. […] The P9 time point was selected based on the fact that vaso-obliteration occurs within the first 48 hours of hyperoxia treatment (Connor, et al., Nature Protocols, 4:1565-1573 (2009); Lange, et al., Graefe's archive for clinical and experimental ophthalmology, 247:1205-1211 (2009); Gu, et al., Investigative ophthalmology & visual science, 43:496-502 (2002)).

[2] = previously reported (De Santo 2018); cited from earlier work
[3] = system: OIR retinas (TNFα, IL-6, MCP1, iNOS, A1, FGF2, CNTF, IL-10 mRNA); assay: OIR mouse model: qPCR of retinal inflammation markers and growth factors; assay type: in vivo
Description: as §1
However, variability was relatively high in the OIR retinas and this protective effect was statistically significant only for TNFα.

[4] = system: mice subjected to optic nerve crush (ONC); assay: Optic nerve crush (ONC) model of traumatic optic neuropathy: neuroprotection by NeuN labeling; assay type: in vivo, mouse; settings: 7 days post-ONC, treated at 3 hours and day 4; vehicle group 62%
Description: Mouse retinal ischemia-reperfusion (IR) injury and traumatic optic neuropathy (TON) models: All experiments were performed in accordance with the ARVO Statement for the Use of Animals in Ophthalmic and Vision Research and were approved by the institutional animal care and use committee (Animal Welfare Assurance no. D16-00197). Wild-type (WT) C57BL/6J mice (10-12 weeks old) were anesthetized using ketamine/xylazine mixture then subjected to retinal ischemia-reperfusion (IR) injury or optic nerve crush (ONC) to model traumatic optic neuropathy (TON) as described in Shosha, et al., Cell death & disease, 7:e2483-e (2016) and Xu, et al., Frontiers in Neuroscience, 12:970 (2018). […]
Evaluation of retinal neurodegeneration: Retina flat-mounts and explants were immunolabeled for the neuronal marker, NeuN (Millipore), as previously described in Shosha, et al., Cell death & disease, 7:e2483-e (2016). Images were collected and analyzed in a blinded fashion using a semi-automated method. […] NeuN-positive cells were quantified using ImageJ software ‘Batch processing’ function. […] The macro was validated every time it was used to make sure it is compatible with the set of images being analyzed. […]

[5] = intravitreal 6.8 ng in 0.5 μL at P12, analysis at P17
[6] = OIR retinas, P13 or P17, not statistically significant
[7] = OIR retinas, did not reach statistical significance

B1: PEG-A1: recombinant human arginase (rhArg) covalently attached to methoxy polyethylene glycol (mPEG-SPA; MW 5,000) via succinamide propionic acid (SPA) linker (protein, UniProt P05089 1-322, looked up)
Arginase-1: MSAKSRTIGIIGAPFSKGQPRGGVEEGPTVLRKAGLLEKLKEQECDVKDYGDLPFADIPNDSPFQIVKNPRSVGKASEQLAGKVAEVKKNGRISLVLGGDHSLAIGSISGHARVHPDLGVIWVDAHTDINTPLTTTSGNLHGQPVSFLLKELKGKIPDVPGFSWVTPCISAKDIVYIGLRDVDPGEHYILKTLGIKYFSMTEVDRLGIGKVMEETLSYLLGRKKRPIHLSFDVDGLDPSFTPATGTPVVGGLTYREGLYITEEIYKTGLLSGLDIMEVNPSLGKTPEEVTRTVNTAVAITLACFGLAREGNHKPIDYLNPPK
modifications: mPEG-SPA 5 kDa conjugate
notes: recombinant human arginase (rhArg) covalently attached to methoxy polyethylene glycol (mPEG-SPA; MW 5,000) via succinamide propionic acid (SPA) linker
hyperoxia-induced vaso-obliteration (capillary dropout area) ([1]; intravitreal 6.8 ng in 0.5 μL at P7, hyperoxia, P9): does not affect
avascular area [1, 5]: avascular area was reduced
endothelial tip cells (vessel sprouts) per field of view [1, 5]: two-fold increase
neovascular tufts (pathological neovascularization) [1, 5]: reduced neovascular tufts
lectin-positive vitreal macrophages after OIR ([1]; intravitreal PEG-A1, vs vehicle): increased
CNS penetration [2]: poor CNS penetration
iNOS mRNA levels ([3]; OIR WT retinas): significantly reduced
A1 mRNA ([3]; OIR retinas): mRNA upregulation
FGF2 mRNA ([3]; OIR retinas): mRNA upregulation
IL-6 expression (qPCR) [3, 6]: reduced the expression
MCP1 expression (qPCR) [3, 6]: reduced the expression
TNFα expression (qPCR) ([3]; OIR retinas, P13 or P17, statistically significant): reduced the expression
CNTF mRNA [3, 7]: mRNA upregulation
IL-10 mRNA [3, 7]: mRNA upregulation
neuroprotection after ONC (NeuN labeling and quantification) [4]: 78%
